What all share (assay): SPOT array
For experiment [1], the target named is T1, Yfr024 SH3 (LSB3_YEAST), P43603.
T1 chain: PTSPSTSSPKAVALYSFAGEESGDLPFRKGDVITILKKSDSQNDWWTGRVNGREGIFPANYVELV

Experiment [2] concerns the target T2, Boi1 SH3 (BOI1_YEAST), P38041.
T2 chain: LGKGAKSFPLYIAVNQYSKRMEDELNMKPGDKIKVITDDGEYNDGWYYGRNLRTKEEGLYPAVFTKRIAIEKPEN

Experiment [3] addresses T3, Boi2 SH3 (BOI2_YEAST), P39969.
T3 chain: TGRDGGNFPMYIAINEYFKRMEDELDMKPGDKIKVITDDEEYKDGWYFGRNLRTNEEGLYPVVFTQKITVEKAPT

For experiment [4], the target named is T4, Yhr016c SH3 (YSC84_YEAST), P32793.
T4 chain: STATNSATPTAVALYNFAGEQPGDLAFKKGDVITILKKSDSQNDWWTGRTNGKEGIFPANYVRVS

For experiment [5], the target named is Sho1 SH3 (SHO1_YEAST), P40073.
Experiment [6] deals with T5, Myo5 SH3 (MYO5_YEAST), Q04439.
T5 chain: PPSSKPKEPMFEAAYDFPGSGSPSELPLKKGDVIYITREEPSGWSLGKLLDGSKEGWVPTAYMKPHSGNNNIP

Experiment [7] deals with T6, Rvs167 SH3 (RV167_YEAST), P39743.
T6 chain: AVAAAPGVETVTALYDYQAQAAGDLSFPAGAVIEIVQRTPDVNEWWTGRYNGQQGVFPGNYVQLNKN

Chain of Sho1 SH3 (SHO1_YEAST), P40073 (P40073 295-366): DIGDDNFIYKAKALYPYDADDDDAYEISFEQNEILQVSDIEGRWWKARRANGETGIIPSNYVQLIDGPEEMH

B1: YCL055W 187-200 (peptide)
chain: VPIDKKSPFYPGLD
Take B1: the normalised SPOT signal, Boehringer light units (BLU); mean over the file's lines of this peptide in experiment [1] amounted to 32.1; in experiment [2], 152; in experiment [3] it was 31.1; in experiment [4], 20.7; in experiment [5], 20.8; in experiment [6], 150. The same molecule returned a normalised SPOT signal, Boehringer light units (BLU); mean over the file's lines of this peptide in experiment [7] of 59.1.

B2: YFR032C 169-182 (peptide)
chain: VYRRKSIPFAPHQI
With B2, the normalised SPOT signal, Boehringer light units (BLU); mean over the file's lines of this peptide was 183 in experiment [1]; 2560 in experiment [2]; 47 in experiment [3]; 70.7 in experiment [4]; 135 in experiment [5]; 383 in experiment [6]. The same molecule showed a normalised SPOT signal, Boehringer light units (BLU); mean over the file's lines of this peptide in experiment [7] of 138.

B3: YGL209W 201-214 (peptide)
chain: VNTPRSVPNSPNDG
With B3, the normalised SPOT signal, Boehringer light units (BLU); mean over the file's lines of this peptide in experiment [1] was determined as 662; in experiment [2], 28.6; in experiment [3], 28; in experiment [4], 208; in experiment [5] it was 47.4; in experiment [6], 65. The normalised SPOT signal, Boehringer light units (BLU); mean over the file's lines of this peptide in experiment [7] turned out to be 59.3.

B4: YAL060W 292-305 (peptide)
chain: VWGPKPVPFQPMDV
For B4, the normalised SPOT signal, Boehringer light units (BLU); mean over the file's lines of this peptide turned out to be 1000 in experiment [1]; 479 in experiment [2]; 247 in experiment [3]; 257 in experiment [4]; 24.2 in experiment [5]; 96.9 in experiment [6]. Besides, in experiment [7], the normalised SPOT signal, Boehringer light units (BLU); mean over the file's lines of this peptide is 112.

B5: YLR212C 354-367 (peptide)
chain: VNIGRRSPYLPLQP
B5: the normalised SPOT signal, Boehringer light units (BLU); mean over the file's lines of this peptide in experiment [1] amounted to 284; in experiment [2], 1040; in experiment [3] it was 19.1; in experiment [4], 19.5; in experiment [5], 94; in experiment [6] it was 476. In experiment [7], this molecule registered a normalised SPOT signal, Boehringer light units (BLU); mean over the file's lines of this peptide of 75.4.

B6: YMR118C 67-80 (peptide)
chain: VSQRKKRPISPHLT
Regarding B6, the normalised SPOT signal, Boehringer light units (BLU); mean over the file's lines of this peptide is 299 in experiment [1]; 216 in experiment [2]; 21.2 in experiment [3]; 10.3 in experiment [4]; 59.1 in experiment [5]; 814 in experiment [6]. Also, the normalised SPOT signal, Boehringer light units (BLU); mean over the file's lines of this peptide in experiment [7] was 31.

B7: YPR171W 231-244 (peptide)
chain: VVPERVKPAPPVSR
As for B7, the normalised SPOT signal, Boehringer light units (BLU); mean over the file's lines of this peptide is 479 in experiment [1]; 2710 in experiment [2]; 51.5 in experiment [3]; 88 in experiment [4]; 43 in experiment [5]; 150 in experiment [6]. In experiment [7], this molecule returned a normalised SPOT signal, Boehringer light units (BLU); mean over the file's lines of this peptide of 53.2.

B8: YOR269W 158-171 (peptide)
chain: VTSVKLHPNLPIVF
As for B8, the normalised SPOT signal, Boehringer light units (BLU); mean over the file's lines of this peptide in experiment [1] was found to be 93.9; in experiment [2], 126; in experiment [3], 10.5; in experiment [4], 8.2; in experiment [5], 58.2; in experiment [6], 137. Also, the normalised SPOT signal, Boehringer light units (BLU); mean over the file's lines of this peptide in experiment [7] came out at 74.

B9: YAL040C 535-548 (peptide)
chain: VRSKRLFPVRPMAT
B9: the normalised SPOT signal, Boehringer light units (BLU); mean over the file's lines of this peptide in experiment [1] was 2610; in experiment [2], 362; in experiment [3], 0; in experiment [4], 236; in experiment [5], 244; in experiment [6] it was 504. The molecule further had a normalised SPOT signal, Boehringer light units (BLU); mean over the file's lines of this peptide in experiment [7] of 309.

B10: YAR007C 257-270 (peptide)
chain: VSKAKLQPAKPQFT
Turning to B10, the normalised SPOT signal, Boehringer light units (BLU); mean over the file's lines of this peptide turned out to be 96.3 in experiment [1]; 657 in experiment [2]; 21.4 in experiment [3]; 50.6 in experiment [4]; 61.2 in experiment [5]; 252 in experiment [6]. In experiment [7], this molecule gave a normalised SPOT signal, Boehringer light units (BLU); mean over the file's lines of this peptide of 28.5.

B11: YKL048C 113-126 (peptide)
chain: VVAVKIIPKKPWNA
On to B11, for which the normalised SPOT signal, Boehringer light units (BLU); mean over the file's lines of this peptide in experiment [1] came to 42; in experiment [2], 85.7; in experiment [3] it was 30.9; in experiment [4] it was 14.7; in experiment [5] it was 66.9; in experiment [6] it was 115. Moreover, the normalised SPOT signal, Boehringer light units (BLU); mean over the file's lines of this peptide in experiment [7] amounted to 47.8.

B12: YER120W 161-174 (peptide)
chain: VVNEKEVPAEPETQ
Take B12: the normalised SPOT signal, Boehringer light units (BLU); mean over the file's lines of this peptide was 33 in experiment [1]; 130 in experiment [2]; 34.2 in experiment [3]; 12.7 in experiment [4]; 28.5 in experiment [5]; 100 in experiment [6]. For the same molecule, the normalised SPOT signal, Boehringer light units (BLU); mean over the file's lines of this peptide in experiment [7] is 12.9.

B13: YDL230W 193-206 (peptide)
chain: VTDIKLTPTDPLVG
Turning to B13, the normalised SPOT signal, Boehringer light units (BLU); mean over the file's lines of this peptide in experiment [1] amounted to 45.9; in experiment [2], 71.3; in experiment [3] it was 0.1; in experiment [4], 10.3; in experiment [5], 47.9; in experiment [6], 852. Moreover, in experiment [7], the normalised SPOT signal, Boehringer light units (BLU); mean over the file's lines of this peptide was found to be 31.

B14: YMR140W 298-311 (peptide)
chain: VQIKRADPHFPHDE
For the molecule B14, the normalised SPOT signal, Boehringer light units (BLU); mean over the file's lines of this peptide in experiment [1] was found to be 44.1; in experiment [2], 33.5; in experiment [3] it was 20; in experiment [4], 41.5; in experiment [5], 30.6; in experiment [6], 132. In experiment [7], this molecule yielded a normalised SPOT signal, Boehringer light units (BLU); mean over the file's lines of this peptide of 63.1.

The values above are taken from article PMC314469, “Protein Interaction Networks by Proteome Peptide Scanning” (PLoS Biology, 2004).
